Like-named read-outs stand apart in the source and are kept apart here. Each block holds one substance with its values, some of them ahead of it.
Columns and labels:
[1] = target: PCNA K164C, labeled with Alexa Fluor 546 (yeast) (UniProt P15873); assay: cross-linking; limiting PCNA: 50 nM AF546-PCNA K164C loaded on nicked pUC19 (15 nM) by full-length RFC (15 nM), CAF-1 titrated 0-1 μM, 100-110 mM NaCl; 0.2% glutaraldehyde; nuclease digestion; SDS-PAGE, PCNA fluorescence, band intensities; affinities estimated
[2] = target: Histones H3–H4 (H3 C110A-H4 E63C), Alexa488-labeled (Xenopus laevis); assay: fluorescence polarisation; 10 nM Alexa488-labeled H3–H4 with increasing CAF-1, Polϵ, Polδ or RPA; 25 mM TRIS pH 7.5, 300 mM NaCl, 5% glycerol, 1 mM EDTA, 0.01% IGEPAL, 0.01% CHAPS, 1 mM DTT; one site binding curve
[3] = target: PCNA (Saccharomyces cerevisiae) (UniProt P15873); settings: cited from earlier work
[4] = target: Proliferating Cell Nuclear Antigen (PCNA), wild type (yeast) (UniProt P15873)
[5] = target: PCNA (Saccharomyces cerevisiae) (UniProt P15873); settings: cited from earlier work; remark: listed apart in the source

Substance: DNA polymerase delta (from UniProt P15436)
Kd [3]: 13.7 nM

Substance: DNA polymerase epsilon (Polϵ) (complex)
Kd [2]: 28 nM
maximum leading-strand replication rate in pulse-chase with the yeast replisome (+RFC/PCNA, Polδ omitted) with 180 nM CAF-1 added; ∼1.09 kb/min without CAF-1 [4]: 0.85 kb/min

Substance: DNA polymerase epsilon (from UniProt P21951)
Kd [5]: 326 nM

The remaining lines, values ahead:

Kd [1]: < 50 nM
Substance: CAF-1_ΔAD mutant (acidic domain deleted) (from UniProt Q12495 1-606; Q04199 1-468; P13712 1-422) (complex)

Kd [2]: 1.1 nM
Substance: Chromatin Assembly Factor-1 (CAF-1), wild type (from UniProt Q12495 1-606; Q04199 1-468; P13712 1-422) (complex)
